No end group written: not given here.
B1: PGA-Paclitaxel-E-[c(RGDfk)2] conjugate (SEQ ID NO:18) having a 2.6 mol % PTX and 5 mol % E-[c(RGDfk)2] loading (peptide)
peptide: RGDFKERGDFK
modifications: not fully specified (residues 4, 5, 10, 11, bridges); also: two cyclic RGDfk rings joined through Glu spacer, paclitaxel ester-linked to PGA, 2.6 mol %
B2: PGA-Paclitaxel-E-[c(RGDfk)2] conjugate (SEQ ID NO:18) having a 5.5 mol % PTX and 3.9 mol % E-[c(RGDfk)2] loading (peptide)
peptide: RGDFKERGDFK
modifications: not fully specified (residues 4, 5, 10, 11, bridges); also: two cyclic RGDfk rings joined through Glu spacer, paclitaxel ester-linked to PGA, 5.5 mol %

Biological target: αvβ3 integrin receptor on human umbilical vein endothelial cells (HUVEC) (human, UniProt P06756 31-1048; P05106 27-788)
Assay: cell-based or functional assay

αvβ3 integrin receptor on human umbilical vein endothelial cells (HUVEC), sequence (P06756 31-1048, chain 1 of 2): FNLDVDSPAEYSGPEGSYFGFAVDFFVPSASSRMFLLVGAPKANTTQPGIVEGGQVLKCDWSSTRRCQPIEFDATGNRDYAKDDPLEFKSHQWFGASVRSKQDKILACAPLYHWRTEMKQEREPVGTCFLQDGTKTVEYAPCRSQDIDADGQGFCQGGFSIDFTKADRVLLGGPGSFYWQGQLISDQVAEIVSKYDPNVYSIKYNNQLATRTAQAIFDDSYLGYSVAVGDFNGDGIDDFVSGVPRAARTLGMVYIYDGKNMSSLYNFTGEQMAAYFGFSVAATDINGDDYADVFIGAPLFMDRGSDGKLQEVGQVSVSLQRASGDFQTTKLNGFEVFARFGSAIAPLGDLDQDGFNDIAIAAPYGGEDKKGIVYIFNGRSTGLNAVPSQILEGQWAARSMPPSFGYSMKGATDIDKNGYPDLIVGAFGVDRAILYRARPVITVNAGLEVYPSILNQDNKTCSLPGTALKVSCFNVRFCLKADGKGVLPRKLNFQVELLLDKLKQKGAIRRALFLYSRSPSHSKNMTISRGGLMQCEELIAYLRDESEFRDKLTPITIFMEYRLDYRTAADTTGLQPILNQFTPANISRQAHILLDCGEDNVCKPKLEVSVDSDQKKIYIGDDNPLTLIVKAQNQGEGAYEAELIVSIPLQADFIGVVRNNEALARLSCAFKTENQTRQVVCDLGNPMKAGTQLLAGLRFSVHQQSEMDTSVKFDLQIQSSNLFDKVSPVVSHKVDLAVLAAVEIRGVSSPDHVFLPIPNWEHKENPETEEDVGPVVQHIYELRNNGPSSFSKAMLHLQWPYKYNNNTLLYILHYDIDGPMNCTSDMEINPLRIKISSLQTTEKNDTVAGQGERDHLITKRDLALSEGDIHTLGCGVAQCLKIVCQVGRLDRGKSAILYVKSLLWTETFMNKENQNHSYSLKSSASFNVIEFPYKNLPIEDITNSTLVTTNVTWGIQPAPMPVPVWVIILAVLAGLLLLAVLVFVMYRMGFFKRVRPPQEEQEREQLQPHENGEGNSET
αvβ3 integrin receptor on human umbilical vein endothelial cells (HUVEC), sequence (P05106 27-788, chain 2 of 2): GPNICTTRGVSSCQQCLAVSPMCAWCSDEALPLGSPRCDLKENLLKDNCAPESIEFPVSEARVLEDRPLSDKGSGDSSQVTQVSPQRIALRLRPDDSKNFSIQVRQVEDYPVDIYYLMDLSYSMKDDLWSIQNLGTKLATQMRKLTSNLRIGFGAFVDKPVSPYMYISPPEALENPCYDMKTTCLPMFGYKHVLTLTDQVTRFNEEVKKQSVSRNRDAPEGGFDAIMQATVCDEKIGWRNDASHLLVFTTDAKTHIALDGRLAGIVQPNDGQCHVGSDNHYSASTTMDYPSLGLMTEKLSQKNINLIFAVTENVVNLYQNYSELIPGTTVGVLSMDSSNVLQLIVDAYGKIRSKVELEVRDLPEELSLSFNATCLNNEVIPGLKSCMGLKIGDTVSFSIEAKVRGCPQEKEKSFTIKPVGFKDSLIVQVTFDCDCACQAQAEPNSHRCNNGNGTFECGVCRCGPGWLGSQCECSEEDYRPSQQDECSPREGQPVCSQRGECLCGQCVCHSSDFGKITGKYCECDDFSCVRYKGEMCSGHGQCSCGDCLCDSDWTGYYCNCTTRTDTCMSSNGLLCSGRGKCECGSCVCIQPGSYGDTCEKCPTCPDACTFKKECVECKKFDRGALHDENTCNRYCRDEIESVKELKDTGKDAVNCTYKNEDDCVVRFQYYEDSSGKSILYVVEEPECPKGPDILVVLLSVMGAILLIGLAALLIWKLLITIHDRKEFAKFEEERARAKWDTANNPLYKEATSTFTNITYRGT

| Binder | inhibition of HUVEC adhesion to fibrinogen [%] |
| --- | --- |
| B1 | ~60 |
| B2 | ~60 |

— patent publication US20140079638A1 (RAMOT AT TEL AVIV UNIVERSITY, published 2014)
